Experimental data from the DeepSol protein solubility set.

Experiment: soluble on expression in E. coli; label from the status in PepcDB or PDB records

Sequence	soluble on expression in E. coli
MGHHHHHHSHAAAIAGAKLRKVSRMEDTSFPSGGNAIGVNSASSKTDTGRGNGPLPLGGSGLMEEMSALLARRRRIAEKGSTIETEQKEDKGEDSEPVTSKASSTSTPEPTRKPWERTNTMNGSKSPVISRPKSTPLSQPSANGVQTEGLDYDRLKQDILDEMRKELTKLKEELIDAIRQELSKSNTA	soluble
MSLKIESNAFRLIEPGVFKKDTLTHDFEEKDIIVKPTKASVCHADLRYYTGNRRPEALAKKLPMALFHEGIGIVEDSKHPDFQQGDKVVIVPNIPSHLRKGTYPTTSFQDNYDENAVFMGSGFDGICQDRMVVSGDNVVKVPTDLDEDVALLAELCSVSLFPINQLDEITTETSPQVAIFGDGPVGYLAATALHYIYGIDKANLIVFGAVQEKLAAFEDFATTHLVFDFDFNQYRGVHTVFECTGGKFSESAINQAIDLIDRQGHIVLMGVTEERVGINTRDVLEKGLTFSGSSRSTKREFEQLIHAFSNKQYQQALRQLIPETYYHIHDTSDLKEAMDDTAAHKGWKKTYLQYHEGHHHHHH	soluble
MIKLSSITAHILDIWHRRNSRSYIAHLRSLGIRIGDGCIFRDPLTTRIDVSRPALVSIGSNVDMNTYFQILTHDWASFVFRNKYHDFVNSSGRVEIGSNIYIGTNVIVLRGVTIGDNCVIGAGSVVTHDIPANSVAVGAPCRVVCSLEHHHHHH	soluble
MSLRNKIKSWLLNASEYDFTDIKEGIRLHLNESPFEPPQFIIDAVKMYLSKGNRYQHPDLLEKYRELAAEYSKVEPENIYPSVGADGSIRAIFYNLVEPGDTILTNYPSYSMYSVYSSVRGTKVIKVNLKEDNEWWKENTDDLLAQAEKVELVIIDDPNNPTGSPMLNGKKELIGQLAENTKGFVVIDEAYYEFGGYTVSPYIYDYPNVLVVRTLSKAFSLASYRLGYTIANEEIVKALMKSSTPFDIPLPSLIAGITALENPSYIKDVVNIVNRNREILYQGLKNLNLKVYKSITNFLLIKDNRNLQEMLMRHGIAIRKLYDNFYRITIGTEDQCKMVIDKLGEELENSNSEGHHHHHH	soluble
MAITVKGLTNKLTRTQRRIAVVEFIFSLLFFLPKEAEVIQADFLEYDTKERQLNEWQKLIVKAFSENIFSFQKKIEEQQLKNQLEIQTKYNKISGKKIDLLTTAVVLCALSEQKAHNTDKPLLISEALLIMDHYSQGAEKKQTHALLDKLL	soluble
MKGFCYRCGHEGELLDGLCKICYTHMNPLIEVDNEVHVEVCHMCGSYKRKLWQDPQKRETYEIMEEIAYFGVKDNLKKANKSIDVEIMPQEPRQLPGGKRSRVEIPTVVFAKGRLVGEDNDREEERHITVYLDMVQCPRCSRCMSNYYEGTLQVRAMNRFLNDKERIELDDFVRDEAGKRLNKDRMAFISKYIPQKEGLDYQMGSMGAIRNIASAIKAKYGGKSIETAKLVGVDKDTGKDMYRITVAVRIPEFKLGDILEHKEKIYVVSSLNESRVYMEPVELGDKIALVWNEIDKSAKLIKKGEDCETATVISITPDTITAMDDSNYEIYEYNNTIENVKEGNKIRIFKNEEINRILEIIELEHHHHHH	soluble
NSDSECPLSHDGYCLHDGVCMYIEALDKYACNCVVGYIGERCQYRDLKWWELR	soluble
MANLTRRQWLKVGLAVGGMVTFGLSYRDVAKRAIDGLLNGTSGKVTRDRIFGNALIPEAQAQTHWQQNPQQTIAMTQCFGCWTQCGIRARVNADGKVIRIAGNPYHPLSQEHPIDSSVPFSEAMEQLAGESGLDARSTACARGATLLESLYSPLRLLEPMKRVGKRGEGKWQRISFEQLIEEVVEGGDLFGEGHVDGLRAIHAPDTPIDAKHPSFGPKTNQLLVTNTSDEGRDAFLRRFALNSFGSKNFGAHGAYCGLAYRAGSGALMGDLDKNPHVKPDWENVEFALFMGTSPAQSGNPFKRQARQLASARLRENFQYVVVAPALPLSTVLADPRGRWQPVMPGSDSALAMGMIRWIMDNQRYNADYLAIPGVQAMQQAGEQSWTNATHLVIADELPTLAGQHLTLRHLTPDGEETPVVLNTDGELVDASTCRQARLFVTQYVTLADGQRVTVKSGLQRLKEAAEKLSLAQYSEQCGVPEAQIIALAETFTSHGRKAAVISHGGMMAGNGFYNAWSVMMLNALIGNLSLSGGVFVGGGKFNGVSDGPRYNMNSFAGKVKPSGLSIARSKTAYEASEEYRDKIAGGQSPYPAKAPWYPFVAGQLTELLTSALEGYPYPLKAWISNMSNPFYGVPGLRAVAEEKLKDPRRLPLFIAIDAFMNETTALADYIVPDTHNFESWGFTAPWGGVASKATTARWPVVAPATHRTADGQPVSMEAFCIAVAKRLHLPGFGDRAITDPQGNTFPLNRAEDFYLRVAANIAFMGKTPVALANQEDISLTGVSRILPAIQHTLKADEVGRVAFIYSRGGRFAPEDSGYTEQRLGNAWKKPLQIWNADVAAHRHAITGERFSGCPVWYPARLSDGRAIDDQFPIGQWPLKLISFKSNTMSSSTAVIPRLHHVKPANLVALNPQDGERYGLQHGDRVRIITPGGQVVAQISLLNGVMPGVIAIEHGYGHREMGATQHSLDGVPMPYDPQIRAGINLNDLGFADPTRTITNTWLDWVSGAAVRQGLPAKIERI	not soluble
SRLDIIRAEMDVVPSPGLPEKVNEKSKNIPLPEGINLLSSKEIIDLIQTHRHQLELYVTKFNPLTDFAGKIHAFRDQFKQLEENFEDLHEQKDKVQALLENARILESKYVASWQDYHSEFSKKYGDIALKKKLEQNTKKLDEESSQLETTTRSIDSADDLDQFIKNYLDIRTQYHLRREKLATWDKQGNLKY	soluble
MHHHHHHSSGVDLGTENLYFQSMATGQKLMRAVRVFEFGGPEVLKLRSDIAVPIPKDHQVLIKVHACGVNPVETYIRSGTYSRKPLLPYTPGSDVAGVIEAVGDNASAFKKGDRVFTSSTISGGYAEYALAADHTVYKLPEKLDFKQGAAIGIPYFTAYRALIHSACVKAGESVLVHGASGGVGLAACQIARAYGLKILGTAGTEEGQKIVLQNGAHEVFNHREVNYIDKIKKYVGEKGIDIIIEMLANVNLSKDLSLLSHGGRVIVVGSRGTIEINPRDTMAKESSIIGVTLFSSTKEEFQQYAAALQAGMEIGWLKPVIGSQYPLEKVAEAHENIIHGSGATGKMILLL	soluble
MYKLNLDIQAFLANDWQQAPKVFKGAFPDFEDPIAADELAGLACEEEVSSRVVVTKGNDWEVISGPFEDYDRFGETHWQLLVQAVNHWYPESQPLVEAFRFLPDWRFDDLMVSFATPQGGVGPHIDNYDVFIIQGEGQRRWTVGPKGNYQRRGGVTTSPLIEDFEPIIDVVLEKGDVLYIPPGFPHQGETLTLALSYSMGYRAPSQQELAGQIADQLMDEDKGHKRFIAVDGAASHGTVSLAEQQGIMQLIRDLCNDTDNVVKVLGKLLSQNRFDLDIQEDESIDADALVEALNEGAVLMRIGGLKVLKMEGDSQARLFVAGESVIIEGASEEELIEVSNSVNVNAELAQLPHWQGFFVQMLQKGYFYLGED	soluble
MANADLDKQPDSVSSVLKVFGILQALGEEREIGITELSQRVMMSKSTVYRFLQTMKTLGYVAQEGESEKYSLTLKLFELGARALQNVDLIRSADIQMRELSRLTKETIHLGALDEDSIVYIHKIDSMYNLRMYSRIGRRNPLYSTAIGKVLLAWRDRDEVKQILEGVEYKRSTERTITSTEALLPVLDQVREQGYGEDNEEQEEGLRCIAVPVFDRFGVVIAGLSISFPTLRFSEERLQEYVAMLHTAARKISAQMGYHDYPF	soluble
MGSDKIHHHHHHMSIQVKALSKRIDNREILRGITFTWQPGRIVGLVGRNGVGKTTLFRTMADHYLADEGELVIEGQSTLQQPYCRQKLFYIDTQRHFFGGRRLRQIITTYALAYDDFDQSQLTALLAAEHLSTKSYYQRLSKGQQMLFQILLALASHVPYIILDEPFDGLDIIVRERIVAYMVEEVAEHGVSFLISSHNLDELDGLCDQVLFLQHHELVADYDLESLRATARKFQLVFADKHIPAVVKEHGQLIKVYGRVLEVYFADYTPTIETALQQTQPLMMAVQPLTITDVFRVKLGDRQAVWGGV	not soluble
AVFNYALMPSLQQFNKILAHELNLVLDEDGPLKSDAPLRRQLLERLGVTVHSINSEKAVEFNHAMSIDLMSEEMTQELGSPTEVRLLLGSESYILWMHIEKLPNSIIRIPLSELQEEDFAPLFR	not soluble
MGSDKIHHHHHHMNMLVRFFIMVSLLKQQLNKQLATEYLSVERLMAPVVRHYRVLPHDMGFRDHLPNYRYLSFIELNITNWLMACCHQKGIKNLGWIIAMQEMVYLKQIKFLDKMTVNSRVVGWDKKYVYFEHQFFVKNQLMAMGMTKFVLTNKQGKCATEVLDMTGEQLNEVIDTWSQHQVAIKSAKSTESTKAA	not soluble
MGSDKIHHHHHHMPELATREFWKDLQPIPDCFKPDAKPEVYLRNAPTEDERLYVPFTETVKSRPLWISPSENRWCDILMATSAGLVNRHYHPHEVFAYTISGKWGYLEHDWTATAGDFVYETPGEGHTLVAYEHEQPMRAFFIVKGPLVWLDEKGNADGIFDVHDYIAMCREHYDKIGVGAAYIDSLFR	not soluble
MKQLSFLPGEMTPQDRRLIQRALRALDRHLHEPGVAFTSTHAVREWLRLHMAALEREEFRVLYLDNQNQLIAHETLFTGTINRTEVHPREVVKRALHFNAAAVILAHNHPSGETTPSQADKTLTQRLVQVLQLVDIRVPDHLIVGGRQIYSFAEHGLL	not soluble
MGLKEKLIRKGKYIWELPKETIEGQRVPVILYLSDALFELLEEDALRQAANAATLPGVEKAIYVMPDVHVGYGFPVGGVMATNTETGIISPGSIGYDINCGVRLIATNLKAVDVAPRIKEIMNNMLKNVPAGVGSTSEIKLSKSQMKEVLVKGAGWAVEHGFGFPEDLQHIEGFGALPNADPEKASHEAYERGSDELGTVGSGNHFVEVQAVEQIYEPEIAEKLGIWEGQVMVMVHSGSRGFGHQVCTDYLRVALKVRDKYKIKLPDPQLACMPFNSPEGQAYFKAMNAAANYAFANRQILGFKAANTVRKTLGISWEEFGYRLIYDHAHNIGKVEKHEVDGKKVEVIVHRKGATRAFPPYNPEVPPAYREVGQPVIIPGDMGRASFLLVGQTNSMKMSFGTACHGAGRVMSRRQAKKYVKEVGLEKVIGNLVVVARGKGTIMEEIPQAYKDVTEVVRVIDELGIAKAVARLKPLGTLKG	soluble
MSLRLEGVVVPLITPFLEDYSIDKEGLKWLVSYLSENGVNGIFVNSSVGEFASLTLDEMKLVTKIALDSRKSYSTLIFAGASTNFTEETIKLAKDFKDMGVDAIVVMAPYFFKVREKELLDHFSMIAEKVDLPIIIYNIPLFTGIDIPISVYKMLVSQHSNIIGTKVTLDSLIFFKKLISEIREIRKDFSILTGFDEYLLPLLYMGGNGGVMGLANAIPKLHLKVYESWKNGNLSDANKYWRNVLNLTDIYDYCNSYTASIKLLLKVLNMPIKNVVRPPLSICEEESKIRGMIKDLSSFLTNSEGHHHHHH	soluble
MSLSFPQLHTVTSYSLLSSTVRIRSYVKQAKALGYQTLAITDINVLHGAVEFYEACQEAGIQPIIGLRLEYTPAEKEGHSELLLFAKNLKGYQQLMQLSSSKMTTEGPFYLAEHQSLLSDLFAVTLSAKGEVAQTFFEDEQQAVHAFQQLASYFDPQSLFVEHSFSMNQQRNPALFSFYQREQLPGVALQEVRHLTREEGFAVTVLESIKENNQLNITSQTPEIEGLNYLREAETTMEQMLQEGHHHHHH	not soluble
MPSENSRPMPSFPRRRESRPWDNGNIQRLSESPRFWIPTFVGMTGCRFVGMTWCRFPYGWIRHSRAGGNLERKI	not soluble
